T1: mCD40-his(小鼠CD40) (小鼠 (mouse), UniProt P27512 24-193, limits assumed)
T1 construct: Bought His-tagged protein; also called 小鼠的CD40
T1 sequence (looked up): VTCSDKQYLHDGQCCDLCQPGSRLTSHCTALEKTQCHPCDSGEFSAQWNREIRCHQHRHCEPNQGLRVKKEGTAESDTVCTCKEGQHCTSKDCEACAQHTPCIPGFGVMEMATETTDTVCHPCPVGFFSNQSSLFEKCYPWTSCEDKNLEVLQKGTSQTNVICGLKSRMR


How the values were obtained:
[1] = biological target: T2, 人CD40 (human, UniProt P25942 21-277); experiment: flow cytometry (MFI) on HT1080-hCD40 cells
T2 construct: whole, on cells; also called hCD40; CD40 on Daudi cells
T2 sequence (P25942 21-277): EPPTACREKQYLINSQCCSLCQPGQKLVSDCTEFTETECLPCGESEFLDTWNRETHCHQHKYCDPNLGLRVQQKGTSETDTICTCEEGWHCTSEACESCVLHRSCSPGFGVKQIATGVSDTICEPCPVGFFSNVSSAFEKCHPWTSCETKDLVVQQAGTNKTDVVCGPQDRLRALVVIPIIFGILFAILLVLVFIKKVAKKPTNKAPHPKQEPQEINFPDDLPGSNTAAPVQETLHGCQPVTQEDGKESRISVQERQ

[2] = biological target: T2, 人CD40; experiment: flow cytometry (MFI) on Daudi cells expressing CD40
[3] = biological target: T1, mCD40-his(小鼠CD40); experiment: ELISA, 2 μg/ml mCD40-his coated, HRP second antibody

EC50 [1]	EC50 [2]	binding result [3]	Binder
0.593 µg/mL	0.414 µg/mL	no binding	抗体25 (antibody, human IgG1, kappa, V domains shown, also called antibody 25; 抗CD40抗体) VH: EVQLVESGGGLVQPGGSLRLSCAASGFSFGTYAMSWVRQAPGKGLEWVSGIDSGTGNPFYADSVKGRFTISRDNSKNTLYLQMNSLRAEDTAVYYCARALYYTGFYRPLDYWGQGTLVTVSS VL: DIQMTQSPSSLSASVGDRVTITCRASQGISSYLAWYQQKPGKAPKLLIYAASSLQSGVPSRFSGSGSGTDFTLTISSLQPEDFATYYCQQHYTTPPTFGQGTKVEIKR
0.995 µg/mL	0.86 µg/mL	–	APX005 (antibody, V domains shown) VH: QVQLVESGGGVVQPGRSLRLSCAASGFSFSSTYVCWVRQAPGKGLEWIACIYTGDGTNYSASWAKGRFTISKDSSKNTVYLQMNSLRAEDTAVYFCARPDITYGFAINFWGPGTLVTVSS VL: DIQMTQSPSSLSASVGDRVTIKCQASQSISSRLAWYQQKPGKPPKLLIYRASTLASGVPSRFSGSGSGTDFTLTISSLQPEDVATYYCQCTGYGISWPIGGGTKVEIK
